From US20100196282A1, “OPTICAL IMAGING AGENTS” (priority 2007, published 2010)
Where a SMILES comes first, the peptide text is derived from it. Bridges are numbered along the chain shown (N, C = ends). The star is where a group is joined. X5 = CCN1c2cc3c(cc2C(C)=CC1(C)C)/C(=C/C=C/C1=[N+](CCCS(=O)(=O)O)c2ccc(S(=O)(=O)[O-])cc2C1(C)CCCC(=O)*)C=C(C(C)(C)C)O3; X4 = CCN(CC)c1ccc2c(c1)OC(C(C)(C)C)=C/C2=C\C=C\C1=[N+](CCCS(=O)(=O)O)c2ccc(S(=O)(=O)[O-])cc2C1(C)CCCC(=O)*; X6 = CCN(CC)c1ccc2c(c1)OC(C(C)(C)C)=C/C2=C\C=C\C1=[N+](CCCCCC(=O)*)c2ccc(S(=O)(=O)[O-])cc2C1(C)C

Columns and labels:
human c-Met/Fc chimera = target: T1, human c-Met/Fc chimera (Homo sapiens, UniProt P08581); assay: Fluorescence polarisation assay, affinity binding to cMet; settings: 5 nM dye-labelled peptide, c-Met/Fc 0-250 nM, 10 min at 30° C., one-site binding
T1 construct: Fc (immunoglobulin Fc fusion partner); purchased R&D Systems
T1 sequence (P08581 with tags, fused parts or gaps limits assumed): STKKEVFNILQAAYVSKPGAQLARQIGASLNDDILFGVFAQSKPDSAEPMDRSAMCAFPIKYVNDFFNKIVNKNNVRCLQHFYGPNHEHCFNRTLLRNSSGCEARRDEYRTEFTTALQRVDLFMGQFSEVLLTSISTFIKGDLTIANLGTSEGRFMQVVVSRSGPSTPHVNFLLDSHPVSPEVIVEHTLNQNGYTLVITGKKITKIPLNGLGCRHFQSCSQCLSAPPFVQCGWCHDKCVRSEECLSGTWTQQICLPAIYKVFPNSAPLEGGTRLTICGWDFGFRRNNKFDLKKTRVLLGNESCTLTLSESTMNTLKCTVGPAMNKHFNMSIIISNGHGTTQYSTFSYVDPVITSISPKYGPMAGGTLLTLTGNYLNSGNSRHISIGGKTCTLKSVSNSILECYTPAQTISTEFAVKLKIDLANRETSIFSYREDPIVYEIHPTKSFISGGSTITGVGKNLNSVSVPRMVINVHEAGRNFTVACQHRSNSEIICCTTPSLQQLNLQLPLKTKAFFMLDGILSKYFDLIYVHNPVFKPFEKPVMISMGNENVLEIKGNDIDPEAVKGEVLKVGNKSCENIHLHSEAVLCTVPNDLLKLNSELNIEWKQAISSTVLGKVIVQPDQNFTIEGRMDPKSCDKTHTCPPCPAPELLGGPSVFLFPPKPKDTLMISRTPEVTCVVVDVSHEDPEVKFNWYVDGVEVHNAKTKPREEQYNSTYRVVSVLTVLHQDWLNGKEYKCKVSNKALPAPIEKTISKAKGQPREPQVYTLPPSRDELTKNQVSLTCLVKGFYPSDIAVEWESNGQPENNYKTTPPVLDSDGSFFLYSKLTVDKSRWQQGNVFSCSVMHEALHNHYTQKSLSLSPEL
T1 sequence (P08581 25-307 limits assumed, change not shown): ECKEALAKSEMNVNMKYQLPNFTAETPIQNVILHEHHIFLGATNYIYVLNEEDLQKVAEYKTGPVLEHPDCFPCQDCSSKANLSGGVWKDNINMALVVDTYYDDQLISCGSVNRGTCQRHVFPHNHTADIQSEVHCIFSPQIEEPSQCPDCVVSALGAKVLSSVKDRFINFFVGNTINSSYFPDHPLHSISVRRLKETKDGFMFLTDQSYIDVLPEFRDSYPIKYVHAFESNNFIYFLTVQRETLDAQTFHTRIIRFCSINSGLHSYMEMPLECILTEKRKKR
Protocol: Monochromatic light passes through a […] polarizing filter and excites fluorescent molecules in the sample. Only those molecules that oriented properly in the vertically polarized plane adsorb light, become excited, and subsequently emit light. The emitted light is measured in both horizontal and vertical planes. The anisotropy value (A), is the ratio between the light intensities following the equation
The fluorescence anisotropy measurements were performed in 384-well microplates in a volume of 10 μL in binding buffer (PBS, 0.01% Tween-20, pH 7.5) using a Tecan Safire fluorescence polarisation plate reader (Tecan, US) at Ex 635/Em 678 nm. The concentration of dye-labelled peptide was held constant (5 nM) and the concentration of the human c-Met/Fc chimera (R&D Systems) was varied from 0-250 nM. Binding mixtures were equilibrated in the microplate for 10 min at 30° C. The observed change in anisotropy was fitted to the equation: […]
where robs is the observed anisotropy, rfree is the anisotropy of the free peptide, rbound is the anisotropy of the bound peptide, Kd is the dissociation constant, cMet is the total c-Met concentration, and P is the total dye-labelled peptide concentration. The equation assumes that the synthetic peptide and the receptor form a reversible complex in solution with 1:1 stoichiometry. Data fitting was done via nonlinear regression using SigmaPlot software to obtain the Kd value (one-site binding).
Compounds 1 to 6 were tested for binding towards human c-Met (Fc chimera).

human serum albumin [1] = target: T2, human serum albumin (Homo sapiens, UniProt P02768); assay: in vitro
T2 sequence (P02768 25-609): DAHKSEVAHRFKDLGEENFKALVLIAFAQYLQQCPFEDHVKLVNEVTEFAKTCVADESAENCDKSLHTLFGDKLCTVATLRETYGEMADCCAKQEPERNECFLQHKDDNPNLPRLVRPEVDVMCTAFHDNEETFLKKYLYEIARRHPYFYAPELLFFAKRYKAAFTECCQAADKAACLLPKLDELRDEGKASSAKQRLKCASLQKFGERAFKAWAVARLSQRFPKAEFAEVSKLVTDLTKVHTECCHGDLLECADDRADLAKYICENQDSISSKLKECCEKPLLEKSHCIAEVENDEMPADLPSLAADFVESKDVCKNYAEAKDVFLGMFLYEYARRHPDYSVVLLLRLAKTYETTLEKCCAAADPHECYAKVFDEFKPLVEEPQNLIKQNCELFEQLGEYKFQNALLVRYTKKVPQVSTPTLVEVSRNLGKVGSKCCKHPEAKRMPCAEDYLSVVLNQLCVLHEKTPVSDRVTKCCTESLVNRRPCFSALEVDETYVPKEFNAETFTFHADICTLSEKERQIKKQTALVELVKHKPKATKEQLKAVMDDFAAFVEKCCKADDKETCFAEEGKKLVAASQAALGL
From the text: Fluorescence polarisation assay was used to examine the affinity binding of the imaging agent towards the cMet target as well as the binding properties related to plasma proteins. The principle of the fluorescence polarisation method can briefly be described as follows:
(§1) The change of the polarization value was used to assess the binding of the Compound to human serum albumin as a low change of polarisation value is associated to low binding being appropriate for in-vivo use.

in vitro = settings: mouse, plasma
From the text: as §1

human serum albumin [2] = target: T2, human serum albumin

Structure (SMILES)	Kd (human c-Met/Fc chimera)	fraction unbound (human serum albumin [1])	remaining at 2 h (in vitro)	Binding human serum albumin (Biacore) (human serum albumin [2])
CCN1c2cc3c(cc2C(C)=CC1(C)C)/C(=C/C=C/C1=[N+](CCCS(=O)(=O)O)c2ccc(S(=O)(=O)[O-])cc2C1(C)CCCC(=O)NCCCC[C@H](NC(=O)CNC(=O)CNC(=O)CNC(=O)[C@@H](NC(=O)CNC(=O)[C@H](CCC(=O)O)NC(=O)[C@@H](NC(=O)[C@H](CCC(=O)O)NC(=O)[C@H](Cc1ccc(O)cc1)NC(=O)[C@@H]1CSSC[C@H](NC(=O)[C@H](CO)NC(=O)CNC(=O)[C@H](C)NC(C)=O)C(=O)N[C@@H](Cc2ccc(O)cc2)C(=O)N[C@H]2CSSC[C@H](NC(=O)[C@H](CCC(=O)O)NC(=O)[C@H](Cc4ccccc4)NC(=O)[C@H](CCCNC(=N)N)NC(=O)[C@@H]4CCCN4C(=O)[C@@H]4CCCN4C(=O)CNC(=O)[C@H](CO)NC2=O)C(=O)N[C@@H](Cc2c[nH]c4ccccc24)C(=O)N1)[C@@H](C)O)[C@@H](C)O)C(N)=O)C=C(C(C)(C)C)O3 (stereo partly drawn) [Compound 5] (Ac-AGSCYCSGPPRFECWCYETEGTGGGK(X5)-NH2; disulfide 4-16, 6-14)	2.2 nM	0.51	> 95%	Medium
CCN(CC)c1ccc2c(c1)OC(C(C)(C)C)=C/C2=C\C=C\C1=[N+](CCCCCC(=O)NCCCC[C@H](NC(=O)CNC(=O)CNC(=O)CNC(=O)[C@@H](NC(=O)CNC(=O)[C@H](CCC(=O)O)NC(=O)[C@@H](NC(=O)[C@H](CCC(=O)O)NC(=O)[C@H](Cc2ccc(O)cc2)NC(=O)[C@@H]2CSSC[C@H](NC(=O)[C@H](CO)NC(=O)CNC(=O)[C@H](C)NC(C)=O)C(=O)N[C@@H](Cc3ccc(O)cc3)C(=O)N[C@H]3CSSC[C@H](NC(=O)[C@H](CCC(=O)O)NC(=O)[C@H](Cc4ccccc4)NC(=O)[C@H](CCCNC(=N)N)NC(=O)[C@@H]4CCCN4C(=O)[C@@H]4CCCN4C(=O)CNC(=O)[C@H](CO)NC3=O)C(=O)N[C@@H](Cc3c[nH]c4ccccc34)C(=O)N2)[C@@H](C)O)[C@@H](C)O)C(N)=O)c2ccc(S(=O)(=O)[O-])cc2C1(C)C [Compound 1] (Ac-AGSCYCSGPPRFECWCYETEGTGGGK(X6)-NH2; disulfide 4-16, 6-14)	2.2 nM	0.64	> 95%	Very high
CCN(CC)c1ccc2c(c1)OC(C(C)(C)C)=C/C2=C\C=C\C1=[N+](CCCS(=O)(=O)O)c2ccc(S(=O)(=O)[O-])cc2C1(C)CCCC(=O)NCCCC[C@H](NC(=O)CNC(=O)CNC(=O)CNC(=O)[C@@H](NC(=O)CNC(=O)[C@H](CCC(=O)O)NC(=O)[C@@H](NC(=O)[C@H](CCC(=O)O)NC(=O)[C@H](Cc1ccc(O)cc1)NC(=O)[C@@H]1CSSC[C@H](NC(=O)[C@H](CO)NC(=O)CNC(=O)[C@H](C)NC(C)=O)C(=O)N[C@@H](Cc2ccc(O)cc2)C(=O)N[C@H]2CSSC[C@H](NC(=O)[C@H](CCC(=O)O)NC(=O)[C@H](Cc3ccccc3)NC(=O)[C@H](CCCNC(=N)N)NC(=O)[C@@H]3CCCN3C(=O)[C@@H]3CCCN3C(=O)CNC(=O)[C@H](CO)NC2=O)C(=O)N[C@@H](Cc2c[nH]c3ccccc23)C(=O)N1)[C@@H](C)O)[C@@H](C)O)C(N)=O (stereo partly drawn) [Compound 2] (Ac-AGSCYCSGPPRFECWCYETEGTGGGK(X4)-NH2; disulfide 4-16, 6-14)	0.5 nM	0.67	> 95%	Very low
